Laboratory results taken from US20030068675, “Position dependent recognition of GNN nucleotide triplets by zinc fingers” (published 2003).

Tests used:
Assay in all cases: EMSA
Settings in all cases: tags: MBP fusion
[1] = target: T1, ZFP SBS#212 (synthetic)
T1 chain: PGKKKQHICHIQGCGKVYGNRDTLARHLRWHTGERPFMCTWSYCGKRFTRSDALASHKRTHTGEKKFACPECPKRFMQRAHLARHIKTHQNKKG
Procedure: (§1) Affinity is measured by titrating purified protein against a fixed amount of labeled double-stranded oligonucleotide target. The target typically comprises the natural binding site sequence flanked by the 3 bp found in the natural sequence and additional, constant flanking sequences. The natural binding site is typically 9 bp for a three-finger protein and 2×9 bp +intervening bases for a six finger ZFP. […] For the assay the target is added at a concentration of 1 nM or lower (the actual concentration is kept at least 10-fold lower than the expected dissociation constant), purified ZFPs are added at various concentrations, and the reaction is allowed to equilibrate for at least 45 min. In addition the reaction mixture also contains 10 mM Tris (pH 7.5), 100 mM KCl, 1 mM MgCl2, 0.1 mM ZnCl2, 5 mM DTT, 10% glycerol, 0.02% BSA. (NB: in earlier assays poly d(IC) was also added at […].) The equilibrated reactions are loaded onto a 10% polyacrylamide gel, which has been pre-run for 45 min in Tris/glycine buffer, then bound and unbound labeled target is resolved by electrophoresis at 150V.

[2] = target: ZFP SBS#211 (synthetic)
Procedure: as §1

[3] = target: ZFP SBS#209 (synthetic)
Procedure: as §1

[4] = target: T2, ZFP SBS#210 (synthetic)
T2 chain: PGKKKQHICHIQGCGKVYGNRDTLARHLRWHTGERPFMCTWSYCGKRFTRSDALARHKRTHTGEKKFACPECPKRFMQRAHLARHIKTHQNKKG
Procedure: as §1

[5] = target: T3, ZFP SBS#207 (synthetic)
T3 chain: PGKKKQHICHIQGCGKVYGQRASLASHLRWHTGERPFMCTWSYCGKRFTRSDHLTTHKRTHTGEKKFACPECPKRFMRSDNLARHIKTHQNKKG
Procedure: as §1

[6] = target: T4, ZFP SBS#236 (synthetic, UniProt P08047)
T4 chain: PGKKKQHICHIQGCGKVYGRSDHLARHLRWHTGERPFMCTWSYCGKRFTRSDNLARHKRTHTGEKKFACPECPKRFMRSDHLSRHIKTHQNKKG
Procedure: as §1

[7] = target: T5, ZFP SBS#223 (synthetic)
T5 chain: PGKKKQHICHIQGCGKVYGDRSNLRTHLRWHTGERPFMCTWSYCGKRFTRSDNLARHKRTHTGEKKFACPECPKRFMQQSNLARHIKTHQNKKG
Procedure: as §1

[8] = target: T6, ZFP SBS#237 (synthetic, UniProt P08047)
T6 chain: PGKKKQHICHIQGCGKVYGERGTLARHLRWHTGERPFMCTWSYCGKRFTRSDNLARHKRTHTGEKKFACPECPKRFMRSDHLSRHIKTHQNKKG
Procedure: as §1

[9] = target: T7, ZFP SBS#238 (synthetic, UniProt P08047)
T7 chain: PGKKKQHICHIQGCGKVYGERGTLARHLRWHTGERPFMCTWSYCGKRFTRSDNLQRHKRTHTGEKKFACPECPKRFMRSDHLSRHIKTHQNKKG
Procedure: as §1

[10] = target: ZFP SBS#247 (synthetic)
Procedure: as §1

[11] = target: ZFP SBS#246 (synthetic)
Procedure: as §1

[12] = target: T8, ZFP SBS#243 (synthetic)
T8 chain: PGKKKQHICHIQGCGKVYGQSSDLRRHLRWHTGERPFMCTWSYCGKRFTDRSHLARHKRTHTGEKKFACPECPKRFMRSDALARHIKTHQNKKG
Procedure: as §1

[13] = target: ZFP SBS#233 (synthetic)
Procedure: as §1

[14] = target: ZFP SBS#232 (synthetic)
Procedure: as §1

[15] = target: T9, ZFP SBS#270 (synthetic)
T9 chain: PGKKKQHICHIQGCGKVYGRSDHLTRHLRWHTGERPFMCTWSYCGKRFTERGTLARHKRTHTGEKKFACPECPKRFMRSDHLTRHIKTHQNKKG
Procedure: as §1

[16] = target: T10, ZFP SBS#269 (synthetic)
T10 chain: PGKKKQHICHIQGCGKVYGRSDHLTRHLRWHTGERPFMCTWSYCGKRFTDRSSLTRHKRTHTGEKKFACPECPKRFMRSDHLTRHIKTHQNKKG
Procedure: as §1

[17] = target: T11, ZFP SBS#264 (synthetic)
T11 chain: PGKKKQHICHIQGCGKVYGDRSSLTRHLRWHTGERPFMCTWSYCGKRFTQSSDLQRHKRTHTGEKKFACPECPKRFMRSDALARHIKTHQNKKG
Procedure: as §1

[18] = target: T12, ZFP SBS#265 (synthetic)
T12 chain: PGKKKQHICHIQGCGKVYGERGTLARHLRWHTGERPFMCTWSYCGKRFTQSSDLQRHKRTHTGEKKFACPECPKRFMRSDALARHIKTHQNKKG
Procedure: as §1

[19] = target: ZFP SBS#242 (synthetic, UniProt P08047)
Procedure: as §1

[20] = target: T13, ZFP SBS#205 (synthetic)
T13 chain: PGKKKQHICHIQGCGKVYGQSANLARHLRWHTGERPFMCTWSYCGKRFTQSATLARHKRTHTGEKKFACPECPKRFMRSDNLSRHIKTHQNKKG
Procedure: as §1

[21] = target: T14, ZFP SBS#225 (synthetic, UniProt P08047)
T14 chain: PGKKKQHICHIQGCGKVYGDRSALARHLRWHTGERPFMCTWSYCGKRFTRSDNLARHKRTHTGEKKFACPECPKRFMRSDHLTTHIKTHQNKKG
Procedure: as §1

[22] = target: T15, ZFP SBS#272 (synthetic)
T15 chain: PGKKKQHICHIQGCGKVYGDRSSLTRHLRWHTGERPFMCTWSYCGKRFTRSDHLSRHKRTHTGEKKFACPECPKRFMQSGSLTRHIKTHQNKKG
Procedure: as §1

[23] = target: T16, ZFP SBS#283 (synthetic)
T16 chain: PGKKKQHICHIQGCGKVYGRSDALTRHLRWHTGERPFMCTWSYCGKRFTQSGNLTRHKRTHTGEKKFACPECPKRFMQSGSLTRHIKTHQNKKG
Procedure: as §1

[24] = target: ZFP SBS#239 (synthetic)
Procedure: as §1

[25] = target: T17, ZFP SBS#250 (synthetic)
T17 chain: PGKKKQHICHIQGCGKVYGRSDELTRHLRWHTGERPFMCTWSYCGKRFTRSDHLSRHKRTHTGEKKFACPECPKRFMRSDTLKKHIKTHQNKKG
Procedure: as §1

[26] = target: ZFP SBS#249 (synthetic)
Procedure: as §1

[27] = target: ZFP SBS#217 (synthetic)
Procedure: as §1

[28] = target: ZFP SBS#245 (synthetic)
Procedure: as §1

[29] = target: ZFP SBS#244 (synthetic)
Procedure: as §1

[30] = target: ZFP SBS#289 (synthetic)
Procedure: as §1

[31] = target: T18, ZFP SBS#235 (synthetic)
T18 chain: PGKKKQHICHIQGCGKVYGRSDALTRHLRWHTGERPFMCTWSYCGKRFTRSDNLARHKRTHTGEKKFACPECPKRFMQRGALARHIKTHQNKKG
Procedure: as §1

[32] = target: ZFP SBS#240 (synthetic)
Procedure: as §1

[33] = target: T19, ZFP SBS#293 (synthetic)
T19 chain: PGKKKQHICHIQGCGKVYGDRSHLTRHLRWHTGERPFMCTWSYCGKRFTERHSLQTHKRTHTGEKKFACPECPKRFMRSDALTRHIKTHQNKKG
Procedure: as §1

ZFP SBS#242, sequence (P08047 other isoform, or with tags, fused parts or gaps): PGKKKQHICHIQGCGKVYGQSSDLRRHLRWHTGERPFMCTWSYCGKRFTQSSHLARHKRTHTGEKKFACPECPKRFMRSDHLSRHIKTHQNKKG
ZFP SBS#233 (synthetic), sequence (chain, as listed by the source): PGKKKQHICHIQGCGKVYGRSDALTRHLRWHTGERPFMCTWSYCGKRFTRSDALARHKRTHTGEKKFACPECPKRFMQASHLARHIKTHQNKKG
ZFP SBS#246 (synthetic), sequence (chain, as listed by the source): as the sequence (P08047 other isoform, or with tags, fused parts or gaps) above, with Q20R, S22D, D23N, R25A, Q50R, S52D, R78Q, D80G, H81N, S83T counted along it
ZFP SBS#245 (synthetic), sequence (chain, as listed by the source): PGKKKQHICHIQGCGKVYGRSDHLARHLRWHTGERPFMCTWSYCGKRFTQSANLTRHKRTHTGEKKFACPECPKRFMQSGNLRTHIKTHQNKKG
ZFP SBS#211 (synthetic), sequence (chain, as listed by the source): as the sequence (P08047 other isoform, or with tags, fused parts or gaps) above, with D23A, R25A, Q50R, S52D, H53A, R56S, R78Q, S79R, D80A, S83A counted along it
ZFP SBS#289 (synthetic), sequence (chain, as listed by the source): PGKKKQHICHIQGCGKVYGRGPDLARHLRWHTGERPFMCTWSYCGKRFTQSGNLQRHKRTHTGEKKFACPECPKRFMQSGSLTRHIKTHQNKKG
ZFP SBS#249 (synthetic), sequence (chain, as listed by the source): as the sequence (P08047 other isoform, or with tags, fused parts or gaps) above, with Q20R, S22D, D23E, R25T, Q50R, S52D, A55S, H81E, S83R counted along it
ZFP SBS#209 (synthetic), sequence (chain, as listed by the source): as the sequence (P08047 other isoform, or with tags, fused parts or gaps) above, with D23A, R25A, Q50R, S52D, H53A, R78Q, S79R, D80A, S83A counted along it
ZFP SBS#240 (synthetic), sequence (chain, as listed by the source): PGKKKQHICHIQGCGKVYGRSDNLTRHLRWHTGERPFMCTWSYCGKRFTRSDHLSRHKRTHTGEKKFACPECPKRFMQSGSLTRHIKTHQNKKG
ZFP SBS#217 (synthetic), sequence (chain, as listed by the source): as the sequence (P08047 other isoform, or with tags, fused parts or gaps) above, with S21R, D23A, R25A, Q50D, S51R, H53A, H81N, S83A counted along it

B1: GGAGTGGTT (dsDNA)
DNA 1: GGAGTGGTT
DNA 2: AACCACTCC
Question: With B1 as the binder, how does the Kd [1] read?
Answer: 400 nM

Question: And the Kd [2]?
Answer: 140 nM

Question: What about the Kd [3] of the same binder?
Answer: 35 nM

Question: And the Kd [4]?
Answer: 65 nM

B2: GAGTGGTTA (dsDNA)
DNA 1: GAGTGGTTA
DNA 2: TAACCACTC
Question: With B2 as the binder, how does the Kd [5] read?
Answer: 70 nM

B3: GGGGAGGGG (dsDNA)
DNA 1: GGGGAGGGG
DNA 2: CCCCTCCCC
Question: For B3, which Kd [6] is on record?
Answer: 0.3 nM

B4: GATGAGTAC (dsDNA)
DNA 1: GATGAGTAC
DNA 2: GTACTCATC
Question: How did the Kd [7] turn out when B4 was run?
Answer: 105 nM

B5: GGGGAGGCC (dsDNA)
DNA 1: GGGGAGGCC
DNA 2: GGCCTCCCC
Question: How did the Kd [8] turn out when B5 was run?
Answer: 0.3 nM

Question: And the Kd [9]?
Answer: 0.8 nM

B6: GAAGGGGAG (dsDNA)
DNA 1: GAAGGGGAG
DNA 2: CTCCCCTTC
Question: How did the Kd [10] turn out when B6 was run?
Answer: 2 nM

Question: What about the Kd [11] of the same binder?
Answer: 2 nM

B7: GTGGGCGCT (dsDNA)
DNA 1: GTGGGCGCT
DNA 2: AGCGCCCAC
Question: For B7, which Kd [12] is on record?
Answer: 75 nM

B8: GGTGTGGTG (dsDNA)
DNA 1: GGTGTGGTG
DNA 2: CACCACACC
Question: With B8 as the binder, how does the Kd [13] read?
Answer: 100 nM

Question: What about the Kd [14] of the same binder?
Answer: 50 nM

B9: GGGGCCGGG (dsDNA)
DNA 1: GGGGCCGGG
DNA 2: CCCGGCCCC
Question: Which results are given for B9?
Answer: Kd [15]: 52.5 nM; Kd [16]: 5 nM

B10: GTGGCTGCC (dsDNA)
DNA 1: GTGGCTGCC
DNA 2: GGCAGCCAC
Question: For B10, which Kd [17] is on record?
Answer: 27 nM

Question: What about the Kd [18] of the same binder?
Answer: 600 nM

B11: GGGGGTGCT (dsDNA)
DNA 1: GGGGGTGCT
DNA 2: AGCACCCCC
Question: B11 was tested. Which Kd [19] did it give?
Answer: 1 nM

B12: GAGGTAGAA (dsDNA)
DNA 1: GAGGTAGAA
DNA 2: TTCTACCTC
Question: For B12, which Kd [20] is on record?
Answer: 80 nM

B13: TGGGAGGTC (dsDNA)
DNA 1: TGGGAGGTC
DNA 2: GACCTCCCA
Question: How did the Kd [21] turn out when B13 was run?
Answer: 6 nM

B14: GCAGGGGCC (dsDNA)
DNA 1: GCAGGGGCC
DNA 2: GGCCCCTGC
Question: With B14 as the binder, how does the Kd [22] read?
Answer: 20 nM

B15: GCAGAAGTG (dsDNA)
DNA 1: GCAGAAGTG
DNA 2: CACTTCTGC
Question: With B15 as the binder, how does the Kd [23] read?
Answer: 2 nM

B16: GGCGGGGAG (dsDNA)
DNA 1: GGCGGGGAG
DNA 2: CTCCCCGCC
Question: How did the Kd [24] turn out when B16 was run?
Answer: 0.4 nM

B17: GCGGGGGCG (dsDNA)
DNA 1: GCGGGGGCG
DNA 2: CGCCCCCGC
Question: Which Kd [25] does the source give for B17 here?
Answer: 70 nM

Question: And the Kd [26]?
Answer: 20 nM

B18: GAGGTCGTA (dsDNA)
DNA 1: GAGGTCGTA
DNA 2: TACGACCTC
Question: For B18, which Kd [27] is on record?
Answer: 40 nM

B19: TAAGAAGGG (dsDNA)
DNA 1: TAAGAAGGG
DNA 2: CCCTTCTTA
Question: Which results are given for B19?
Answer: Kd [28]: 235 nM; Kd [29]: 100 nM

B20: GCAGAAGCG (dsDNA)
DNA 1: GCAGAAGCG
DNA 2: CGCTTCTGC
Question: B20 was tested. Which Kd [30] did it give?
Answer: 800 nM

B21: GTAGAGGTG (dsDNA)
DNA 1: GTAGAGGTG
DNA 2: CACCTCTAC
Question: How did the Kd [31] turn out when B21 was run?
Answer: 80 nM

B22: GCAGGGGAG (dsDNA)
DNA 1: GCAGGGGAG
DNA 2: CTCCCCTGC
Question: B22 was tested. Which Kd [32] did it give?
Answer: 1 nM

B23: GTGTGCGGC (dsDNA)
DNA 1: GTGTGCGGC
DNA 2: GCCGCACAC
Question: B23 was tested. Which Kd [33] did it give?
Answer: 320 nM
